# T1: GST-MINT1 PDZ domain 2 (Mus musculus (Mouse)), B2RUJ5
# T1 chain: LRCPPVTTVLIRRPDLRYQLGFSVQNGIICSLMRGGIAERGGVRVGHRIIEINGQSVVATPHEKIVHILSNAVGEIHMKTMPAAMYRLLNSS
# T2: GST-SITAC-18 PDZ domain 1 (Homo sapiens (Human)), Q9H190
# T2 chain: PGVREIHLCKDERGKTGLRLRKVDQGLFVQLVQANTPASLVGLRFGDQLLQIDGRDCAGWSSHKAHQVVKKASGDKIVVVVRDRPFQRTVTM
# T3: GST-MUPP1 PDZ domain 7 (Homo sapiens (Human)), O75970
# T3 chain: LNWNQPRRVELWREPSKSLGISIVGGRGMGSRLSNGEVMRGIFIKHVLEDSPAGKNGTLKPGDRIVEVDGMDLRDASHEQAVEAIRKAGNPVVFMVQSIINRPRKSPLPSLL
# T4: GST-MINT1 PDZ domain 1 (Mus musculus (Mouse)), B2RUJ5
# T4 chain: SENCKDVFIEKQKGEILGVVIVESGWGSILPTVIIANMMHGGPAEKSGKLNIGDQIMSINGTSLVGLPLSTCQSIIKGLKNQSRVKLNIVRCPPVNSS
# T5: GST-KIAA0807(S) PDZ domain 1 (Homo sapiens (Human)), Q6P0Q8
# T5 chain: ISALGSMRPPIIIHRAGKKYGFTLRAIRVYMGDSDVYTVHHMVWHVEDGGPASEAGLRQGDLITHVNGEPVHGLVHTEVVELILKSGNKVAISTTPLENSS
# T6: GST-Outer Membrane PDZ domain 1 (Homo sapiens (Human)), P57105
# T6 chain: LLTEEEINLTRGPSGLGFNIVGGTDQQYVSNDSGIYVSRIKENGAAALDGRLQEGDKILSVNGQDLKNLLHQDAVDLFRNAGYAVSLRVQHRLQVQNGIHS
# T7: GST-FLJ 10324 PDZ domain 1 [GST: P08515]
# T7 chain: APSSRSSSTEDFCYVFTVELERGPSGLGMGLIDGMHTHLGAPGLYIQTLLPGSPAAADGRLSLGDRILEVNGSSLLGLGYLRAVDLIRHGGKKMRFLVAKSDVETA
# T8: GST-PTPL1 PDZ domain 2 (Homo sapiens (Human)), Q12923
# T8 chain: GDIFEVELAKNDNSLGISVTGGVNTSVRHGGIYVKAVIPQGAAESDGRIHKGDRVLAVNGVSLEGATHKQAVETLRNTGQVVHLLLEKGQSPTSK
# T9: GST-MUPP1 PDZ domain 11 (Homo sapiens (Human)), O75970
# T9 chain: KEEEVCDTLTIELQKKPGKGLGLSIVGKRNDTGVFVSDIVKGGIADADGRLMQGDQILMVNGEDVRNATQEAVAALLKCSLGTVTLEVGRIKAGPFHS
# T10: GST-FLJ00011 PDZ domain 1 (Homo sapiens (Human)), Q9H5P4
# T10 chain: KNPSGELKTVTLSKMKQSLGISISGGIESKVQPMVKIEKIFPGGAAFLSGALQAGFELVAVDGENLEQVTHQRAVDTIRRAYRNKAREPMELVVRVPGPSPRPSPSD
# T11: GST-TIP1 PDZ domain 1 (Table 9 insert) (Homo sapiens (Human)), O14907
# T11 chain: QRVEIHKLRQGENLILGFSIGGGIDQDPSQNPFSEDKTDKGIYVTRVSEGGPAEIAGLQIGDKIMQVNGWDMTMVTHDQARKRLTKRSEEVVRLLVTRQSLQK
# Legend:
# Assay in all cases: G assay titration, PDZ 5 ug/ml
# [1] = molecular target: GST-TAX IP2 PDZ domain 1 [GST: P08515]
# Sequence of GST-TAX IP2 PDZ domain 1 [GST: P08515] (P08515 whole entry, the tested form may be a part): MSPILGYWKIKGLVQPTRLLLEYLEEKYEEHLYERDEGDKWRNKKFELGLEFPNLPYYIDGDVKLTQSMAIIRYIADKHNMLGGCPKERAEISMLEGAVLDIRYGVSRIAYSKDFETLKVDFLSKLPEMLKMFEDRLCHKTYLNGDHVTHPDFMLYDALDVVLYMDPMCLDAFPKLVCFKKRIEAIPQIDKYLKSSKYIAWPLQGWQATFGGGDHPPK
# [2] = molecular target: T1, GST-MINT1 PDZ domain 2 (Mus musculus …)
# [3] = molecular target: T2, GST-SITAC-18 PDZ domain 1 (Homo sapiens …)
# [4] = molecular target: T3, GST-MUPP1 PDZ domain 7 (Homo sapiens …)
# [5] = molecular target: T4, GST-MINT1 PDZ domain 1 (Mus musculus …)
# [6] = molecular target: T5, GST-KIAA0807(S) PDZ domain 1 (Homo …)
# [7] = molecular target: T6, GST-Outer Membrane PDZ domain 1 (Homo …)
# [8] = molecular target: T7, GST-FLJ 10324 PDZ domain 1 [GST: P08515]
# [9] = molecular target: GST-PSD95 PDZ domain 1 (Homo sapiens)
# [10] = molecular target: GST-Atrophin-1 Interacting Protein PDZ domain 3 (Rattus norvegicus (Rat)), O88382
# Sequence of GST-Atrophin-1 Interacting Protein PDZ domain 3 (Rattus norvegicus (Rat)), O88382 (O88382 774-865, tags or fused parts left off): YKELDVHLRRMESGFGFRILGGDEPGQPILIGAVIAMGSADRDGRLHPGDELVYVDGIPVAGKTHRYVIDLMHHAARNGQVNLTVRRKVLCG
# [11] = molecular target: T8, GST-PTPL1 PDZ domain 2 (Homo sapiens …)
# [12] = molecular target: T9, GST-MUPP1 PDZ domain 11 (Homo sapiens …)
# [13] = molecular target: T10, GST-FLJ00011 PDZ domain 1 (Homo sapiens …)
# [14] = molecular target: T11, GST-TIP1 PDZ domain 1 (Table 9 insert) …
binder,measurement,setting,value
VPGALDYAAFSSALYGESDL (modifications not checked) [a-actinin 2],Kd,[1],2500 nM
ILNSIQVMRAQMNQIQSVEV (modifications not checked) [ephrin B2],Kd,[2],3000 nM
same,Kd,[3],4000 nM
KTMPAAMYRLLTAQEQPVYI (modifications not checked) [MINT-1],Kd,[4],1500 nM
same,Kd,[5],2000 nM
VGTLLLERVIFPSVKIATLV (modifications not checked) [AdenoE4 typ9],Kd,[6],200 nM
same,Kd,[7],100 nM
same,Kd,[8],100 nM
same,Kd,[9],100 nM
same,Kd,[10],100 nM
same,Kd,[11],200 nM
same,Kd,[12],100 nM
AWDDSARAAGGQGLHVTAL (modifications not checked) [LPAP],Kd,[13],1500 nM
same,Kd,[14],5000 nM

# Reference: patent US20050282743A1, “Molecular interactions in cells” (Arbor Vita Corporation, priority 2001, published 2005)
